Laboratory results reported in US20260028403A1 (Zymeworks, published 2026).
Residue numbers refer to the chain shown, from its start.

B1: v37638 (trispecific antibody, human IgG1, kappa, L234A L235A)
heavy 1: not shown
heavy 2: QVQLVESGGGLVQPGGSLRLSCSVSGIDLSSNPMIWVRQAPGKGLQYIGIIDTDGSTYYADWAKGRFTISKDSTTVYLQINSPRAEDTAVYYCARRLHGSSNGYYDDLWGQGTLVTVSSGGGGSGGGGSGGGGSGGGGSDGQMTQSPSSVSASVGDRVTITCQASQSIYSYLSWYQQKPGQRPKLLIYKASTLASGVPSRFSGSGSGTDFTLTISSVQPEDFATYYCQQGYTVTNVDKNTFGGGTKVEIKAAEPKSSDKTHTCPPCPAPEAAGGPSVFLFPPKPKDTLMISRTPEVTCVVVSVSHEDPEVKFNWYVDGVEVHNAKTKPREEQYNSTYRVVSVLTVLHQDWLNGKEYKCKVSNKALPAPIEKTISKAKGQPREPQVYVLPPSRDELTKNQVSLLCLVKGFYPSDIAVEWESNGQPENNYLTWPPVLDSDGSFFLYSKLTVDKSRWQQGNVFSCSVMHEALHNHYTQKSLSLSPG
light: DIQMTQSPSSLSASVGDRVTITCRASESVEYYVTSLMQWYQQKPGKAPKLLIYAASNVDSGVPSRFSGSGSGTDFTLTISSLQPEDIATYYCQQSRKVPFTFGGGTKVEIKRTVAAPSVFIFPPSDEQLKSGTASVVCLLNNFYPREAKVQWKVDNALQSGNSQESVTEQDSKDSTYSLSSTLTLSKADYEKHKVYACEVTHQGLSSPVTKSFNRGEC
notes: wild type huTN228 Fab; Het Fc, FcKO; also called Cldn18.2xCD3xCD28 trispecific
B2: v37640 (trispecific antibody, human IgG1, kappa, L234A L235A)
heavy 1: QVQLQESGPGLVKPSETLSLTCAVSGFSLTSYGVHWIRQPPGKGLEWLGVIWPGGGTNFNSALMSRLTISEDTSKNQVSLKLSSVTAADTAVYYCARDRAYGNYLYAMDYWGQGTLVTVSSASTKGPSVFPLAPSSKSTSGGTAALGCLVKDYFPEPVTVSWNSGALTSGVHTFPAVLQSSGLYSLSSVVTVPSSSLGTQTYICNVNHKPSNTKVDKKVEPKSCDKTHTCPPCPAPEAAGGPSVFLFPPKPKDTLMISRTPEVTCVVVSVSHEDPEVKFNWYVDGVEVHNAKTKPREEQYNSTYRVVSVLTVLHQDWLNGKEYKCKVSNKALPAPIEKTISKAKGQPREPQVYVYPPSRDELTKNQVSLTCLVKGFYPSDIAVEWESNGQPENNYKTTPPVLDSDGSFALVSKLTVDKSRWQQGNVFSCSVMHEALHNHYTQKSLSLSPGGGGGSGNFMLTQPHSVSESPGKTVTISCKRNTGNIGSNYVNWYQQHEGSSPTTIIYRNDKRPDGVSDRFSGSIDRSSKSASLTISNLKTEDEADYFCQSYSSGFIFGGGTKLTVLGGGGSGGGGSGGGGSGGGGSEVQLVESGGGLVQPGGSLRLSCAASGVTFNYYGMSWIRQAPGKGLEWVASITSSGGRIYYPDSVKGRFTISRENTQKTLYLQMNSLRAEDTAVYYCTLDGRDGWVAYWGQGTLVTVSS
heavy 2: B1 heavy 2
light: B1 light
notes: Het Fc, FcKO; also called Cldn18.2xCD28xCD3 trispecific
B3: v37635 (trispecific antibody, human IgG1, lambda, L234A L235A)
heavy 1: EVQLVESGGGLVQPGGSLRLSCAASGVTFNYYGMSWIRQAPGKGLEWVASITSSGGRIYYPDSVKGRFTISRENTQKTLYLQMNSLRAEDTAVYYCTLDGRDGWVAYWGQGTLVTVSSASTKGPSVFPLAPSSKSTSGGTAALGCLVKDYFPEPVTVSWNSGALTSGVHTFPAVLQSSGLYSLSSVVTVPSSSLGTQTYICNVNHKPSNTKVDKKVEPKSCDKTHTCPPCPAPEAAGGPSVFLFPPKPKDTLMISRTPEVTCVVVSVSHEDPEVKFNWYVDGVEVHNAKTKPREEQYNSTYRVVSVLTVLHQDWLNGKEYKCKVSNKALPAPIEKTISKAKGQPREPQVYVYPPSRDELTKNQVSLTCLVKGFYPSDIAVEWESNGQPENNYKTTPPVLDSDGSFALVSKLTVDKSRWQQGNVFSCSVMHEALHNHYTQKSLSLSPGGGGGSGDIQMTQSPSSLSASVGDRVTITCRASESVEYYVTSLMQWYQQKPGKAPKLLIYAASNVDSGVPSRFSGSGSGTDFTLTISSLQPEDIATYYCQQSRKVPFTFGGGTKVEIKGGGGSGGGGSGGGGSGGGGSQVQLQESGPGLVKPSETLSLTCAVSGFSLTSYGVHWIRQPPGKGLEWLGVIWPGGGTNFNSALMSRLTISEDTSKNQVSLKLSSVTAADTAVYYCARDRAYGNYLYAMDYWGQGTLVTVSS
heavy 2: B1 heavy 2
light: NFMLTQPHSVSESPGKTVTISCKRNTGNIGSNYVNWYQQHEGSSPTTIIYRNDKRPDGVSDRFSGSIDRSSKSASLTISNLKTEDEADYFCQSYSSGFIFGGGTKLTVLGQPKAAPSVTLFPPSSEELQANKATLVCLISDFYPGAVTVAWKADSSPVKAGVETTTPSKQSNNKYAASSYLSLTPEQWKSHRSYSCQVTHEGSTVEKTVAPTECS
notes: Het Fc, FcKO; also called CD3xCD28xCldn18.2 trispecific
B4: v37411 (antibody, human IgG1, V domains shown)
VH: QVQLVESGGGLVQPGGSLRLSCSVSGIDLSSNPMIWVRQAPGKGLQYIGIIDTDGSTYYADWAKGRFTISKDSTTVYLQINSPRAEDTAVYYCARRLHGSSNGYYDDLWGQGTLVTVSS
VL: DGQMTQSPSSVSASVGDRVTITCQASQSIYSYLSWYQQKPGQRPKLLIYKASTLASGVPSRFSGSGSGTDFTLTISSVQPEDFATYYCQQGYTVTNVDKNTFGGGTKVEIK
notes: human IgG1-based monoclonal antibody; also called H5-L4; anti-CLDN18.2 mAb
B5: v35777 (antibody, human IgG1, V domains shown)
VH: QSLEESGGRLVTPGTPLTLTCTVSGIDLSSNPMIWVRQAPGKGLQYIGIIDTDGSTYYASWAKGRFTGSKTSTTVDLKITSPTTEDTATYFCARRLHGSSNGYYDDLWGQGTLVTISS
VL: DGVMTQTPSSVSAAVGGTVTIKCQASQSIYSYLSWYQQKPGQRPKLLIYKASTLASGVPSRFKGSGSGTEFTLTISGVQCDDAATYYCQQGYTVTNVDKNTFGGGTEVVVK
notes: also called parental rabbit chimeric; rabbit-human chimeric IgG1/kappa anti-CLDN18.2
B6: v37407 (antibody, human IgG1, V domains shown)
VH: B4 VH with Q46E, I80M, P83L
VL: B4 VL
notes: human IgG1-based monoclonal antibody; also called H4-L4
B7: v37409 (antibody, human IgG1, V domains shown)
VH: QVQLVESGGGLVQPGGSLRLSCSVSGIDLSSNPMIWVRQAPGKGLEYIGIIDTDGSTYYADWAKGRFTISKDSSKNTVYLQMNSLRAEDTAVYYCARRLHGSSNGYYDDLWGQGTLVTVSS
VL: B4 VL
notes: human IgG1-based monoclonal antibody; also called H2-L4
B8: v37410 (antibody, human IgG1, V domains shown)
VH: B7 VH with E46Q
VL: B4 VL
notes: human IgG1-based monoclonal antibody; also called H3-L4
B9: v37408 (antibody, human IgG1, V domains shown)
VH: B4 VH with Q46E, I80M, P83L
VL: B4 VL with F83A, I110V
notes: human IgG1-based monoclonal antibody; also called H4-L2

Biological target: T1, Human CLDN18.2 (human)
T1 construct: on transfected HEK293-6E cells or native on SNU 601 cells
Experiment: flow cytometry, SNU 601 cells

First: B1
Second: B2
The Bmax of the first is lower: 9140 MFI for the first, 9770 MFI for the second.

Going from B3 to B4, the Bmax rises from 6600 MFI to 11700 MFI.

Going from B1 to B2, the EC50 falls from 47.5 nM to 26.4 nM (1.8-fold).

Going from B3 to B4, the EC50 falls from 30.1 nM to 8.9 nM (3.4-fold).

Biological target: T2, Recombinant human/cynomolgus/rhesus macaque CD28 mouse IgG2a Fc fusion protein (Acro Biosystems) (human/cynomolgus/rhesus macaque, UniProt P10747 19-152)
T2 construct: bought; also called huCD28
Experiment: SPR, in-format anti-CD28 variants, huCD28

With B1 the “Fold-change from WT” value was 1 fold.

Binder B1 has a Kd of 22.2 nM.

With B1 the koff was 0.0021 s⁻¹.

Binder B1 has a kon of 95500 M⁻¹ s⁻¹.

Biological target: T1, Human CLDN18.2
Experiment: flow cytometry, HEK293-6E + human CLDN18.2, 4PL fit
Description: (§1) The purified rabbit chimeric and humanized constructs were assessed for binding to HEK293-6E cells transfected with human, cynomolgus monkey, or mouse CLDN18.2 orthologs (TABLE 12) by flow cytometry. […] Constructs were also assessed for binding to HEK293-6E cells transfected with human CLDN18.1.

Going from B5 to B6, the Bmax falls from 2070 to 2040.

Going from B7 to B8, the Bmax falls from 1960 to 1910.

First: B9
Second: B4
The Bmax of the first is higher: 2190 for the first, 2170 for the second.

B5 and B6 are within 1.5-fold of each other in EC50: 1.29 nM for the first, 1.54 nM for the second.

B7 and B8 are within 1.5-fold of each other in EC50: 1.22 nM for the first, 0.97 nM for the second.

Going from B9 to B4, the EC50 falls from 1.87 nM to 1.05 nM (1.8-fold).

Biological target: T3, Recombinant human CD3 epsilon/delta heterodimer, his tag protein (Acro Biosystems) (human, UniProt P07766 23-126; P04234 22-105)
T3 construct: bought
Experiment: SPR Biacore T200, CD3 e/d-his on CM5, construct injected, 1:1 model;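 further: measured at 25 °C in HEPES-buffered saline with EDTA and Tween 20 at pH 7.4, values are means of three independent runs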
Description: All SPR binding experiments were carried out using a BiacoreT200 instrument at 25° C. with 10 mM HEPES, 150 mM NaCl, 3 mM EDTA, and 0.05% Tween 20 at pH 7.4. Recombinant human CD3 epsilon/delta heterodimer, his tag protein (Acro Biosystems) was covalently immobilized on CM5 sensor chips by amine coupling. Purified antibody constructs to be tested were indirectly captured on the sensor chip by binding to the recombinant CD3 protein when injected at 30 μL/min for 140-500 s following a dissociation for 600-1200 s. Resultant kₒₙ, koff and KD values were determined from fitting the sensorgrams using the 1:1 binding model with reported values as the mean of three independent runs.

Going from B1 to B2, the Kd rises from 74.6 nM to 296 nM (4-fold). The first binds more tightly here.

With B3 the Kd was 92.5 nM.

B1 and B2 are within 1.5-fold of each other in koff: 0.0123 s⁻¹ for the first, 0.0155 s⁻¹ for the second.

B3 was tested, and the koff was 0.0143 s⁻¹.

Going from B1 to B2, the kon falls from 164000 M⁻¹ s⁻¹ to 52200 M⁻¹ s⁻¹ (3.1-fold).

With B3 the kon was 157000 M⁻¹ s⁻¹.

Biological target: T4, Mouse CLDN18 A2.1 (mouse, UniProt P56857 10-264)
T4 construct: on transfected HEK293-6E cells; also called Mouse CLDN18 2.1; mouse CLDN18.2 ortholog
T4 chain: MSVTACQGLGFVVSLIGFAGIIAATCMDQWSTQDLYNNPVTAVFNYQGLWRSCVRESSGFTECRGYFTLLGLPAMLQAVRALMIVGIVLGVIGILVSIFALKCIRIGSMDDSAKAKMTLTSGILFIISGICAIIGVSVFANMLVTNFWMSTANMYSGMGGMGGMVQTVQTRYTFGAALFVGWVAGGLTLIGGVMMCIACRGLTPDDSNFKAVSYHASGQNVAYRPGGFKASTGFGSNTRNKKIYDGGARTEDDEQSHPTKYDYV
Experiment: flow cytometry, HEK293-6E + mouse CLDN18, 4PL fit
Description: as §1

Compared with B5, B6 is lower in Bmax: 1640 for the first, 1540 for the second.

First: B7
Second: B8
The Bmax of the first is lower: 1530 for the first, 1690 for the second.

Going from B9 to B4, the Bmax falls from 1920 to 1790.

B5 and B6 are within 1.5-fold of each other in EC50: 0.87 nM for the first, 0.8 nM for the second.

B7 and B8 are within 1.5-fold of each other in EC50: 0.89 nM for the first, 1.02 nM for the second.

Compared with B9, B4 is 2.6-fold lower in EC50: 2.65 nM for the first, 1.03 nM for the second. The second is the more potent here.

Biological target: T5, Cynomolgus monkey CLDN18 (cynomolgus monkey)
T5 construct: on transfected HEK293-6E cells; also called Cyno CLDN18; cyno CLDN18.2 ortholog
T5 chain: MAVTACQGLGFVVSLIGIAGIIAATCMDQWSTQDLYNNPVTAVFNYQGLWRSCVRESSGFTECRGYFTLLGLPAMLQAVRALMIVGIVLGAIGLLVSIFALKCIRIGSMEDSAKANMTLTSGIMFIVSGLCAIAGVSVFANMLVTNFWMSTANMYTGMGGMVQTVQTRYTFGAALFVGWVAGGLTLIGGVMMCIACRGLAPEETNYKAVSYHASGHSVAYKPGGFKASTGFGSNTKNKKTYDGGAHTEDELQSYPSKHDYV
Experiment: flow cytometry, HEK293-6E + cyno CLDN18, 4PL fit
Description: as §1

Going from B5 to B6, the Bmax falls from 1660 to 1410.

B7 and B8 are the same in Bmax: 1500 for the first, 1500 for the second.

Going from B9 to B4, the Bmax rises from 1520 to 1730.

First: B5
Second: B6
The EC50 of the first is 2-fold higher: 0.48 nM for the first, 0.24 nM for the second.

B7 and B8 are within 1.5-fold of each other in EC50: 0.35 nM for the first, 0.31 nM for the second.

B9 and B4 are within 1.5-fold of each other in EC50: 0.36 nM for the first, 0.37 nM for the second.

Biological target: T6, CD28 on primary human T cells (human, UniProt P10747 19-220)
Experiment: cell-based or functional assay

In the case of B1, the “IC50, T cell-dependent cytotoxicity on SNU 601” value is reported as 0.00017 nM.

For B1, the “Maximum Killing (%), SNU 601” value was 88.2%.

Biological target: T6, CD28 on primary human T cells
Experiment: cell-based or functional assay
Remark: another data set of the same source

With B1 the “IL-2 maximum cytokine, T cells alone” value was 1750 pg/mL.

B1 was tested, and the “IL-2 maximum cytokine, T cells with SNU 601 cells” value was 3710 pg/mL.

With B1 the “TNFa maximum cytokine, T cells alone” value was 115 pg/mL.

In the case of B1, the “TNFa maximum cytokine, T cells with SNU 601 cells” value is reported as 670 pg/mL.

Biological target: T2, Recombinant human/cynomolgus/rhesus …
Experiment: SPR Biacore T200, CD28-mIgG2a Fc on CM5, construct injected, 1:1 model;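 further: fc fusion captured by amine coupling, run at 25 °C in HEPES buffer pH 7.4, association 140-500 s then dissociation 600-1200 s, values averaged over three independent runs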

B1 and B2 are within 1.5-fold of each other in Kd: 22.2 nM for the first, 27.3 nM for the second.

In the case of B3, the Kd is reported as 288 nM.

B1 and B2 are within 1.5-fold of each other in koff: 0.0021 s⁻¹ for the first, 0.00212 s⁻¹ for the second.

In the case of B3, the koff is reported as 0.0107 s⁻¹.

B1 and B2 are within 1.5-fold of each other in kon: 95500 M⁻¹ s⁻¹ for the first, 77800 M⁻¹ s⁻¹ for the second.

In the case of B3, the kon is reported as 40400 M⁻¹ s⁻¹.
